Tests used:
Conditions in all cases: both partners purified
[1] = target: T1, Fc-tagged SARS-CoV-2 receptor-binding domain (RBD), wild type (SARS-CoV-2, Wuhan-Hu-1 (QHD43416.1), UniProt P0DTC2); assay: BLI; Fc-tagged RBD (20 ug/ml) loaded on anti-hIgG Fc Capture (AHC) biosensors, Fab in solution at four to five concentrations; Octet Red96e, room temperature, 1x kinetics buffer (1x PBS pH 7.4, 0.01% w/v BSA, 0.002% v/v Tween 20); 1:1 binding model
T1 construct: also called SARS-CoV-2 RBD; WT RBD; not shown: Fc, C-terminal, kept

[2] = target: T2, Fc-tagged SARS-CoV-2 spike receptor-binding domain (RBD) (SARS-CoV-2, Wuhan-Hu-1 (QHD43416.1), UniProt P0DTC2); assay: BLI; Fc-tagged RBD (20 ug/ml) loaded on anti-hIgG Fc Capture (AHC) biosensors, Fab in solution; room temperature; 1x PBS pH 7.4, 0.01% BSA, 0.002% Tween 20; 1:1 binding model
T2 construct: also called SARS-CoV-2 RBD; Fc-tagged RBD; source: Expi293F, transiently transfected, purified (KanCapA protein A resin); not shown: Fc (after an SSSSG linker), C-terminal, kept

Fc-tagged SARS-CoV-2 RBD = target: T3, Fc-tagged SARS-CoV-2 RBD (SARS-CoV-2, Wuhan-Hu-1 (QHD43416.1), UniProt P0DTC2); assay: BLI; Octet Red96e, room temperature; Fc-tagged RBD (20 μg/ml) loaded on anti-hIgG Fc Capture (AHC) biosensors, Fab in solution; 1× kinetics buffer (1× PBS pH 7.4, 0.01% BSA, 0.002% Tween 20); 60 s association, 60 s dissociation; 1:1 binding model
T3 construct: also called SARS-CoV-2 S RBD-Fc; not shown: Fc, C-terminal, kept

B1: COVA2-20 Fab, wild type (Fab, V domains shown)
VH: EVQLVESGGGLIQPGGSLRLSCAASGFTVSSNYMSWVRQAPGKGLEWVSVIYSGGSTYYADSVKGRFTISRDNSKNTLYLQMNSLRAEDTAVYYCASPLLLTPPDYYYYMDVWGKGTMVTVSS
VL: DVVMTQSPSSLSVSVGDRVTITCRASQGIRNDLGWYQQKPGKAPKRLIYAASSLQSGVPSRFSGSGSGTEFTLTISSLQPEDFATYYCLQHNSYLWTFGQGTKLEIK
- Kd [1]: 304 ± 20 nM

B2: COVA2-20 Fab, Y58 (wild type) (Fab, V domains shown)
VH: B1 VH
VL: B1 VL
- Kd [2]: 304 nM

B3: COV107-23 Fab (Fab, V domains shown)
VH: EVQLVESGGGLIQPGGSLRLSCAASGFTVSSNYMSWVRQAPGKGLEWVSVIYSGGSTFYADSVKGRFTISRDNSKNTLYLQMNSLRAEDTAVYYCARDLGTGLFDYWGQGTLVTVSS
VL: DIQLTQSPSFLSASVGDRVTITCRASQGISSYLAWYQQKPGKAPKLLIYAASTLQSGVPSRFSGSGSGTEFTLTISSLQPEDFATYYCQQLDSYPPGTFGPGTKVDIK
notes: also called wild-type (WT) COV107-23; source: Expi293F, transiently co-transfected, purified (CaptureSelect CH1-XL column)
- Kd (Fc-tagged SARS-CoV-2 RBD): 1 nM
